We go through one molecule from patent US10358638B2, “Method of producing 1,5-pentadiamine using lysine decarboxylase mutant having improved thermal stability” (AJINOMOTO CO., INC., priority 2014, dated 2019).

A short description of this assay: Screening of lysates for retained lysine decarboxylase activity after heat treatment at 65° C. In kind it is biochemical, Escherichia coli. To be noted: lysate incubated at 65° C. for 2 hours, then reacted at 37° C. for 40 minutes. As for the experimental part: A colony of each transformant in which the mutated lysine decarboxylase had been introduced was picked up, inoculated to 1 mL of the LB medium containing 100 μg/mL of ampicillin, and cultured at 30° C. for 24 hours. 18 μL of 100 mM 2-(N-morpholino) ethanesulfonic acid (MES)-NaOH buffer (pH6.0) and 2.7 μL of FastBreak cell lysis reagent (Promega) were added to 10 μL of this cultured medium, which was then incubated at 37° C. for 30 minutes to lyse the microbial cells. Then, this lysate solution was heated up to 65° C. and incubated for 2 hours. After this heat treatment, 190 μL of a reaction solution (pH 5.5) containing 10 g/L of lysine hydrochloride, 21.3 g/L (100 mM) of MES, 26.5 mg/L of Pyridoxal-5′-phosphate (PLP) and 20 mg/L of Bromocresol purple was added and reacted at 37° C. for 40 minutes. […] More abundant formation of 1,5-PD and retention of activity as compared to bacteria expressing the wild-type enzyme after treating with heat under the above conditions were used as an indicator. Three candidate strains expressing CadA having improved thermal stability were obtained using this indicator. These transformants of E. coli JM109 strain were designated as CadA231, CadA232 and CadA233, respectively.

B1: pCadA220: wild-type lysine decarboxylase (CadA) derived from Escherichia coli W3110, expressed from plasmid pCadA220 (protein, UniProt P0A9H3 1-715, looked up)
Inducible lysine decarboxylase: MNVIAILNHMGVYFKEEPIRELHRALERLNFQIVYPNDRDDLLKLIENNARLCGVIFDWDKYNLELCEEISKMNENLPLYAFANTYSTLDVSLNDLRLQISFFEYALGAAEDIANKIKQTTDEYINTILPPLTKALFKYVREGKYTFCTPGHMGGTAFQKSPVGSLFYDFFGPNTMKSDISISVSELGSLLDHSGPHKEAEQYIARVFNADRSYMVTNGTSTANKIVGMYSAPAGSTILIDRNCHKSLTHLMMMSDVTPIYFRPTRNAYGILGGIPQSEFQHATIAKRVKETPNATWPVHAVITNSTYDGLLYNTDFIKKTLDVKSIHFDSAWVPYTNFSPIYEGKCGMSGGRVEGKVIYETQSTHKLLAAFSQASMIHVKGDVNEETFNEAYMMHTTTSPHYGIVASTETAAAMMKGNAGKRLINGSIERAIKFRKEIKRLRTESDGWFFDVWQPDHIDTTECWPLRSDSTWHGFKNIDNEHMYLDPIKVTLLTPGMEKDGTMSDFGIPASIVAKYLDEHGIVVEKTGPYNLLFLFSIGIDKTKALSLLRALTDFKRAFDLNLRVKNMLPSLYREDPEFYENMRIQELAQNIHKLIVHHNLPDLMYRAFEVLPTMVMTPYAAFQKELHGMTEEVYLDEMVGRINANMILPYPPGVPLVMPGEMITEESRPVLEFLQMLCEIGAHYPGFETDIHGAYRQADGRYTVKVLKEESKK
As for B1, the “activity after heat treatment of lysate” value is listed as “inactivated”.
